Reference: patent publication US20220056094A1 (JIANGSU HENGRUI MEDICINE, published 2022)
Residue numbers refer to the chain shown, from its start. Numbers in names are those of the source.

T1: his-tagged human IL-2Rα recombinant protein (SinoBiological, Cat #10165-H08H) (human, UniProt P01589 22-213)
T1 construct: Bought protein; also called IL-2Rα (His Tag)
T1 sequence: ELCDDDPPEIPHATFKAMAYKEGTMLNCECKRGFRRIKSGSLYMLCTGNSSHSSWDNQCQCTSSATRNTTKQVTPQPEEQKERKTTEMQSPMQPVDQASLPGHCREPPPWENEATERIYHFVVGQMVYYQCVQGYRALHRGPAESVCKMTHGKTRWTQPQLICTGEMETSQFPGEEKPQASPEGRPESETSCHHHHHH

T2: IL-2 receptor IL-2Rα/β/γ on human peripheral blood Treg cells (human, UniProt P01589 22-272; P14784 27-551; P31785 23-369)
T2 sequence (looked up) 1: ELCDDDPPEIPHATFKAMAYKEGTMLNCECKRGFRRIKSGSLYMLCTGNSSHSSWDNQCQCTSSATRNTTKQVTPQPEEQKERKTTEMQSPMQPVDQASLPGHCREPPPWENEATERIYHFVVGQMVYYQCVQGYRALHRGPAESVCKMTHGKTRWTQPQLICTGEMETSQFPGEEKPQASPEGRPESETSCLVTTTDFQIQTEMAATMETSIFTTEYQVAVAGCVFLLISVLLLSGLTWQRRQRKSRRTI
T2 sequence (looked up) 2: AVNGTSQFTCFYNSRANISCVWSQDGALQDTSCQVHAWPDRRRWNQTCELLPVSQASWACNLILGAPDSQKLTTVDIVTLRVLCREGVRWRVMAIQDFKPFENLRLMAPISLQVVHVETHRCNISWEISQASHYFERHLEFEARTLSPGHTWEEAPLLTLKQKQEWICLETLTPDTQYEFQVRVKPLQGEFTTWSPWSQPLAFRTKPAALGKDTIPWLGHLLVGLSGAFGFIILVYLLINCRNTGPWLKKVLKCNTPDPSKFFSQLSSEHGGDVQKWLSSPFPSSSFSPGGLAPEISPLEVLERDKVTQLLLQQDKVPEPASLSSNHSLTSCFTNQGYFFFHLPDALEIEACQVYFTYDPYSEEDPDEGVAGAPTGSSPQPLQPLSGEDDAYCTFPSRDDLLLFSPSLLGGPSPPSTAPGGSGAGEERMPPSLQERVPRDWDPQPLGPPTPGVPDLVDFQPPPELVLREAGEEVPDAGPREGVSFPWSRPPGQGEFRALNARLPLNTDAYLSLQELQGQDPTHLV
T2 sequence (looked up) 3: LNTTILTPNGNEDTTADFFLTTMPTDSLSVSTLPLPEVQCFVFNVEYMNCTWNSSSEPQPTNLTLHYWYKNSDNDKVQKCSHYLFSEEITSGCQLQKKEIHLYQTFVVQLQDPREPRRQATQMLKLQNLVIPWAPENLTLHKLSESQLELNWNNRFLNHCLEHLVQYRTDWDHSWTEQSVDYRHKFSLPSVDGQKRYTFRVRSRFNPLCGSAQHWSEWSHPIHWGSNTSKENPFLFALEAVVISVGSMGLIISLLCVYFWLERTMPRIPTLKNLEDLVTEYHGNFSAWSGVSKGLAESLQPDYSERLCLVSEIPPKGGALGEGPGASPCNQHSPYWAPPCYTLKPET

T3: medium-affinity receptor IL-2Rβ/γ on human cells (Mo7e cell line; human CD8+T and NK cells) (human, UniProt P14784 27-551; P31785 23-369)
T3 sequence (looked up) 1: T2 sequence (looked up) 2
T3 sequence (looked up) 2: T2 sequence (looked up) 3

T4: high-affinity receptor IL-2Rα/β/γ on CTLL2 cells (mouse-derived cell line) (mouse, UniProt P01590 22-268; P16297 27-539; P34902 23-369)
T4 sequence (looked up) 1: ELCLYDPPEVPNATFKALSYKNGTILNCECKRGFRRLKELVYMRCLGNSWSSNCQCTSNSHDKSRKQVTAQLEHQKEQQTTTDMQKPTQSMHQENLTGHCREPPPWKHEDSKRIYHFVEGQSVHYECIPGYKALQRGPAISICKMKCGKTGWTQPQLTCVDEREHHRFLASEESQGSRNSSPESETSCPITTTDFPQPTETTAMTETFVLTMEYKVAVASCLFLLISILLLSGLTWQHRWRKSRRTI
T4 sequence (looked up) 2: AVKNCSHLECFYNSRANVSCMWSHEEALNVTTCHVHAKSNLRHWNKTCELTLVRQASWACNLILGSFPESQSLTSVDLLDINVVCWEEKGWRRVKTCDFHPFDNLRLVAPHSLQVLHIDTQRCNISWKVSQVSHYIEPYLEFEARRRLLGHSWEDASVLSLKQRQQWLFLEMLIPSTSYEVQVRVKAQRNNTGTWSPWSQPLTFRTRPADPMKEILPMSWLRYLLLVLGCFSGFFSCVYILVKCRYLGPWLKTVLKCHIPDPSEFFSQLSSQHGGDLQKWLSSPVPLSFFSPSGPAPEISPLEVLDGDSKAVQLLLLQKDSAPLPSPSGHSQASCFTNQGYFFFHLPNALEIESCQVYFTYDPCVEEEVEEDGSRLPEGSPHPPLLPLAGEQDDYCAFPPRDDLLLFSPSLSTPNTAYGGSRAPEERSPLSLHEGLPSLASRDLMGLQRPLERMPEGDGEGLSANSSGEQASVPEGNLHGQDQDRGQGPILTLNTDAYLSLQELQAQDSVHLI
T4 sequence (looked up) 3: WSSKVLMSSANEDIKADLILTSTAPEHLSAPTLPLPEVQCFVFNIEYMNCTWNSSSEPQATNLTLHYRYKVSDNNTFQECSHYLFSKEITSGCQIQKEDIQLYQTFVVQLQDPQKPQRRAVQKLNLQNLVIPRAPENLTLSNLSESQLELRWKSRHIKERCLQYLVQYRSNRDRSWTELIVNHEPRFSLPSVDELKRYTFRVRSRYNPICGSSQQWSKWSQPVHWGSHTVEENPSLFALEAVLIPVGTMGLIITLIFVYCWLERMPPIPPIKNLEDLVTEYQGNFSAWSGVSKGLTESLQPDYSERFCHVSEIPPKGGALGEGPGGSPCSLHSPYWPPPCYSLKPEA

B1: IL-2-24 (N26Q/N29S/N88R) (ligand)
chain: MAPTSSSTKKTQLQLEHLLLDLQMILQGISNYKNPKLTRMLTFKFYMPKKATELKHLQCLEEELKPLEEVLNLAQSKNFHLRPRDLISRINVIVLELKGSETTFMCEYADETATIVEFLNRWITFAQSIISTLT
B2: PEGylated IL-2-10 (ligand)
chain: B1 chain with S30N, N31S, F43A, L73G, R89N
modifications: mono-PEGylated with 20 kDa mPEG-butyraldehyde (sodium cyanoborohydride); site not stated
notes: also called PEG-IL-2-10
B3: PEGylated IL-2-22 (ligand)
chain: B1 chain with F43A, N72Q, L73G, R89N
modifications: mono-PEGylated with 20 kDa mPEG-butyraldehyde (sodium cyanoborohydride); site not stated
notes: also called PEG-IL-2-22
B4: PEGylated IL-2-23 (ligand)
chain: MAPTSSSTKKTCLQLEHLLLDLQMILNGIQSMHIDATLYMPKKATELKHLQCLEEELKPLEEVLNLAQSKNFHLRPRDLISNINVIVLELKGSETTFMCEYADETATIVEFLNRWITFAQSIISTCT
modifications: mono-PEGylated with 20 kDa mPEG-butyraldehyde (sodium cyanoborohydride); site not stated
notes: also called PEG-IL-2-23

Experiments:
[1] = target: T1, his-tagged human IL-2Rα recombinant …; experiment: BLI (Octet RED96e), His-tagged IL-2Rα on HIS1K sensor; column printed as 'affinity (nM)'
[2] = target: T2, IL-2 receptor IL-2Rα/β/γ on human …; experiment: cell-based or functional assay
[3] = target: T5, IL-2Rβ/γ-Fc heterodimer (IL-2Rβ-Fc-hole with IL-2Rγ-Fc-knob); experiment: SPR (Biacore), IL-2Rβ/γ-Fc captured on Protein A chip
T5 construct: Co-expressed in HEK293 cells and purified with Protein A and Superdex 200
Description: The Protein A sensor chip (GE, Cat #29127556) of the Biacore instrument (Biacore T200, GE) was used to capture IL-2Rβ/γ-Fc, wherein IL-2Rβ/γ-Fc was diluted with 1×HBS-EP to 1 μg/mL, and flowed at a flow rate of 10 μL/min for 30 seconds. […] The Biacore instrument (Biacore X100, GE) was used to detect the reaction in real time, to obtain association and dissociation curves. After each cycle of dissociation was completed, the chip was washed and regenerated with 10 mM Gly-HCl pH 1.5.

[4] = target: T3, medium-affinity receptor IL-2Rβ/γ on …; experiment: cell-based or functional assay
[5] = target: T1, his-tagged human IL-2Rα recombinant …; experiment: BLI (Octet RED96e), His-tagged IL-2Rα on HIS1K sensor
Description: The HIS1K biosensor (Fortebio, 18-5120) was immersed into 200 μL buffer (PBS, pH 7.4, 0.02% tween-20, 0.1% BSA) for 10 minutes, for wetting treatment. Then, human IL-2Rα with His tag (SinoBiological, Cat #10165-H08H) was dissolved in PBS pH 7.4, 0.02% tween-20 and 0.1% BSA, and the sensor was placed in 200 μL of such solution. The sensor was placed in 200 μL buffer (PBS pH 7.4, 0.02% tween-20, 0.1% BSA) to wash off the excess IL-2Rα.

[6] = target: T4, high-affinity receptor IL-2Rα/β/γ on …; experiment: cell-based or functional assay
[7] = target: T3, medium-affinity receptor IL-2Rβ/γ on …; experiment: cell-based or functional assay; remark: listed apart in the source
[8] = target: T3, medium-affinity receptor IL-2Rβ/γ on …; experiment: cell-based or functional assay; remark: listed apart in the source

Binder | Kd [1] | EC50 (STAT5 phosphorylation in human Treg cells) [2] | relative biological activity (STAT5 phosphorylation in human Treg cells) [2] | Kd [3] | koff [3] | kon [3] | EC50 (Mo7e cell proliferation) [4] | relative biological activity (Mo7e cell proliferation) [4] | binding result [5] | EC50 (CTLL2 cell proliferation) [6] | relative biological activity (CTLL2 cell proliferation) [6] | EC50 (STAT5 phosphorylation in human NK cells) [7] | relative activity (STAT5 phosphorylation in human NK cells) [7] | EC50 (STAT5 phosphorylation in human CD8+T cells) [8] | relative activity (STAT5 phosphorylation in human CD8+T cells) [8]
B1 | 11.8 nM | 0.209 nM | 0.2% |  |  |  |  |  |  |  |  |  |  |  | 
B2 |  | 2.65 nM | 0.02% | 0.86 nM | 0.00119 s⁻¹ | 1.38e+06 M⁻¹ s⁻¹ | 13.2 nM | 19% | no binding (tested: 133.3 nM) | 35.3 nM | 0.2% | 2 nM | 24% | 8.97 nM | 26%
B3 |  |  |  | 3.54 nM | 0.000549 s⁻¹ | 155000 M⁻¹ s⁻¹ | 34.8 nM | 7% | no binding (tested: 133.3 nM) | 39.2 nM | 0.1% |  |  |  | 
B4 |  | 4.24 nM | 0.01% | 1.86 nM | 0.000649 s⁻¹ | 350000 M⁻¹ s⁻¹ | 23.4 nM | 10% | no binding (tested: 133.3 nM) |  |  | 2.88 nM | 17% | 14.4 nM | 16%
